Source: US20200308286A1, “METHODS, COMPOSITIONS, AND KITS FOR TREATMENT OF CANCER” (Fusion Pharmaceuticals, Inc., priority 2017, published 2020)

Assays:
[1] = test system: human UM-UC-1 bladder cancer cell line; experiment: Conditional survival study (tumor growth delay) in UM-UC-1 bladder cancer xenograft mice; assay type: in vivo; conditions: administered as single agent
Protocol: Efficacy was assessed using tumor growth delay in a conditional survival study.

[2] = test system: other FGFRs; conditions: cited from earlier work
[3] = test system: cancers expressing both wild-type and genetically activated forms of FGFR3; conditions: Du 2011; cited from earlier work
[4] = Phase 1b/2 study of B-701 and docetaxel in advanced UCC, Cohort 1: safety; conditions: Cohort 1, n=19, B-701 given with docetaxel
Protocol: Docetaxel was administered intravenously over approximately 60 minutes at a dosage of 75 mg/m^2. […] Administration was carried out every 3 weeks (q3w). […] The primary objective was to evaluate progression-free survival (PFS) and safety. Secondary objectives included evaluation of overall response rate (ORR), duration of response (DOR), disease control rate (DCR), and overall survival (OS). Each of these objectives was evaluated for correlations with FGFR3 expression and/or FGFR3 mutations/fusions.

[5] = resolved after docetaxel was discontinued

B-701: human FGFR3 antagonistic monoclonal antibody MFGR1877S (CAS No. 1312305-12-6), human IgG1 backbone; heavy chain SEQ ID NO:9, light chain SEQ ID NO:10
survival of tumor bearing UM-UC-1 xenograft mice [1]: significantly extended survival
cross-reactivity with other FGFRs [2]: no cross-reactivity
efficacy [3]: efficacious
Grade 3 or higher AE related to B-701: Colitis, # of subjects [4]: 1 subjects
Grade 3 or higher AE related to B-701: Colitis, % of subjects [4]: (5%)
Grade 3 or higher AE related to B-701: DIC, # of subjects [4]: 1 subjects
Grade 3 or higher AE related to B-701: DIC, % of subjects [4]: (5%)
Grade 3 or higher AE related to B-701: Decreased WBCs, # of subjects [4]: 2 subjects
Grade 3 or higher AE related to B-701: Decreased WBCs, % of subjects [4]: (11%)
Grade 3 or higher AE related to B-701: Decreased lymphocytes, # of subjects [4]: 1 subjects
Grade 3 or higher AE related to B-701: Decreased lymphocytes, % of subjects [4]: (5%)
Grade 3 or higher AE related to B-701: Decreased neutrophil count, # of subjects [4]: 4 subjects
Grade 3 or higher AE related to B-701: Decreased neutrophil count, % of subjects [4]: (21%)
Grade 3 or higher AE related to B-701: Diarrhea, # of subjects [4]: 1 subjects
Grade 3 or higher AE related to B-701: Diarrhea, % of subjects [4]: (5%)
Grade 3 or higher AE related to B-701: Fatigue, # of subjects [4]: 1 subjects
Grade 3 or higher AE related to B-701: Fatigue, % of subjects [4]: (5%)
Grade 3 or higher AE related to B-701: Hyponatremia, # of subjects [4]: 1 subjects
Grade 3 or higher AE related to B-701: Hyponatremia, % of subjects [4]: (5%)
Grade 3 or higher AE related to B-701: Thrombocytopenia, # of subjects [4]: 1 subjects
Grade 3 or higher AE related to B-701: Thrombocytopenia, % of subjects [4]: (5%)
Grade 3 or higher AE related to B-701: ALT elevation, # of subjects [4, 5]: 1 subjects
Grade 3 or higher AE related to B-701: ALT elevation, % of subjects [4, 5]: (5%)
Grade 3 or higher AE related to B-701: AST elevation, # of subjects [4, 5]: 1 subjects
Grade 3 or higher AE related to B-701: AST elevation, % of subjects [4, 5]: (5%)

CC(=O)O[C@H]1C(=O)[C@@]2(C)[C@H]([C@H](OC(=O)c3ccccc3)[C@]3(O)C[C@H](OC(=O)[C@H](O)[C@@H](NC(=O)c4ccccc4)c4ccccc4)C(C)=C1C3(C)C)[C@]1(OC(C)=O)CO[C@@H]1C[C@@H]2O [paclitaxel]
survival of tumor bearing UM-UC-1 xenograft mice [1]: significantly extended survival

Nc1ccn([C@@H]2O[C@H](CO)[C@@H](O)C2(F)F)c(=O)n1 [gemcitabine]
survival of tumor bearing UM-UC-1 xenograft mice [1]: significantly extended survival
